44 sequences from the supplement of paper PMC9942255 can be followed below.

In the data set the test system is Bacillus subtilis DB104 (SP-AmyQ fusion secretion). The data set is described as follows: AmyQ secretion efficiency, weighted average sort bin (1 = best secretion, 10 = worst) (bin number (weighted average, 1-10)); higher = lower secretion efficiency. Summed up:
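The secretion score was taken as the read-frequency-weighted mean bin number, normalised to beads per bin, with low-abundance sequences excluded. Bins came from large-particle flow cytometry sorting of occupied alginate beads (~65 nL, about 0.3 cells each, with fluorescein-starch) into 10 equally populated groups by green/red fluorescence ratio after about 13 h at room temperature and nile red staining. The cells were a B. subtilis DB104 library with mature AmyQ fused to designed signal peptides, integrated at amyE, and each bin's amplicons were Illumina-sequenced.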

Sequence MKRSYVSLRVWMVFLMNWVTPDRKTAAAAVY registered an AmyQ secretion efficiency of 6.51.

In turn, MKRIRIPMTLALGAALTIAPLTVATASFASAEEN gave an AmyQ secretion efficiency of 4.63.

Regarding MKRSMLFILVLSFLSIIVAYPIQTNASPM, the AmyQ secretion efficiency came to 2.84.

“MIQKRKRTVSFRLVLMCTLLFVSLPITKTSAVNG [wt_amyQ]” displayed an AmyQ secretion efficiency of 1.16.

For MKSKGSIMACLILFSFTITEDEEEETISAFSN, the AmyQ secretion efficiency was 6.65.

MRNLTKTSLLLAGLCTAAQMVFVTHGSAEES registered an AmyQ secretion efficiency of 4.68.

On to MKKIWIGMLAAAVLLLITISVTAAMVPKVSLADAA, for which the AmyQ secretion efficiency was found to be 5.

Consider MKKLLAAGIIGLLTVSIASPLFAAEK, for which the AmyQ secretion efficiency stood at 3.02.

MRKKTKNRLISSVLSTVVISSLLFPGAAGASSD had an AmyQ secretion efficiency of 2.47.

Take MKRLLVSLRVWMVFLMNWVTVGRKTAAAAVY: the AmyQ secretion efficiency turned out to be 5.77.

Sequence MRGKSAVLLSLIMLIAGFLISFTFQM came in with an AmyQ secretion efficiency of 6.75.

Sequence MKRKLLSSLAISALSLGLLVSAPTAWFAAES showed an AmyQ secretion efficiency of 9.22.

For MMKKLFHSTLIVLLFFSFFGVRKKRRKIHAKKQ, the AmyQ secretion efficiency was 6.23.

As for MKLKSKLLLSCLALSTVFVRKRIANAPTH, the AmyQ secretion efficiency came out at 6.91.

Take MKSKWMSGLLLVAVGFSFTQVMFHAGET: the AmyQ secretion efficiency came to 6.46.

MKRTWNVCLTALLSVPFHAEAKKP gave an AmyQ secretion efficiency of 6.8.

The sequence MRGKSAVLLSLIMLIAGFLISFMFQM registered an AmyQ secretion efficiency of 7.73.

For the sequence MKKAFLVFLSVVLVTTVFLVKQQESVAQKKQL, the AmyQ secretion efficiency came out at 4.43.

For MKLAKRVSALTPSTTLAITAKFKEL, the AmyQ secretion efficiency turned out to be 7.68.

Turning to MKKKLAAGLTASAIVGTTLVVTPQEAATI, the AmyQ secretion efficiency was found to be 5.9.

For MRPVFPLILSAVLFLSCFFGARQTEVSASKR, the AmyQ secretion efficiency came to 2.58.

On to MNFMFTVVSALSISALALSVSGVASAHEI, for which the AmyQ secretion efficiency worked out at 3.15.

MRSYIKVLTMCFLGLILFVPTGVFGSSPPFAAALADNS yielded an AmyQ secretion efficiency of 3.3.

For the sequence MKKIWIGMLAAAVLLLMVPKVSLAAAD, the AmyQ secretion efficiency came to 5.09.

The sequence MKKKLAAGLTASAIVGTTLVEDEEDAEAATI gave an AmyQ secretion efficiency of 6.91.

In the case of MKSKGSIMKCQILFSFTITTFINTETISAFSN, the AmyQ secretion efficiency worked out at 6.89.

The sequence MFNRLFRVCFLAALIMAFTLPNSLYAQKP yielded an AmyQ secretion efficiency of 2.72.

MKKWKYRRRVVLVLSIAGIGGFSVHAASS: the AmyQ secretion efficiency is 7.42.

MLCVMMLLFSAIASFPVSAQQKDQ came in with an AmyQ secretion efficiency of 6.18.

Turning to MKLAKRVSALTPSTTLAITAKCKEL, the AmyQ secretion efficiency was determined as 7.76.

For MKQGKFSVFLILLLMLTLVVAPKEKCEAASS, the AmyQ secretion efficiency is 1.62.

MRSKKLLFTLWISLLFALTLIFTMAFSNMSAQAAGK came in with an AmyQ secretion efficiency of 2.87.

In turn, MKKRLIAPMLLSAASLAFFAMSGSAQPAAY came in with an AmyQ secretion efficiency of 5.92.

In turn, MRMLWRSLALCGLALTLAPCVQAAEP yielded an AmyQ secretion efficiency of 1.79.

MLKRTSFVSSLFISSAVLLSILLPSGQLHAQSA had an AmyQ secretion efficiency of 1.71.

For MTFTKVVGFLSVLGLAAVFPLTAQAEKA, the AmyQ secretion efficiency turned out to be 3.02.

On to MRHKIITFILAVVVIIIIGNMIGGGGGSEATSK, for which the AmyQ secretion efficiency was 5.87.

In turn, MKIRKLIFNMFLILLSSALSFGMLISAVPALAAGT registered an AmyQ secretion efficiency of 3.62.

MMKKLFHSTLRRRRFFSFFGVQPIHAKKQ returned an AmyQ secretion efficiency of 7.67.

In turn, MIAYFGKCLLLVTIMFLGVLGMQQANHG showed an AmyQ secretion efficiency of 5.4.

For MKKERGGTYVLCLSLSPLVSTNEVFAATT, the AmyQ secretion efficiency worked out at 8.09.

MAIIIAIIAAVIVIAALITFNVRNRSPG registered an AmyQ secretion efficiency of 7.6.

MRSYIKFNFIISVLTMCFLGLILFVPTALADNS had an AmyQ secretion efficiency of 1.36.

As to MKRLLSTLLIGIMLLEQQPKAFAKQD, the AmyQ secretion efficiency amounted to 1.64.
